Results on four molecules are retold here after publication PMC4014428, “Enhanced Interaction between Pseudokinase and Kinase Domains in Gcn2 stimulates eIF2α Phosphorylation in Starved Cells” (PLoS Genetics, 2014).

For assay [1], the target named is T1, HA epitope-tagged LexA fusion to a Gcn2 KD segment (residues 720–999) (S. cerevisiae, UniProt P15442 720-999).
T1 construct: the plasmid is PGAL-LexA-HA-GCN2 (720–999); also called HA-LexA-KD; LexA-HA-KD; source: yeast gcn2Δ strain HQY132, high-copy-number plasmid, in whole cell extract; not shown: LexA, N-terminal, kept; HA, N-terminal, kept
The assay can be described thus: co-IP; WCEs (50 µg protein) of gcn2Δ yeast HQY132 co-expressing LexA-HA-KD(720–999) and Gcn2 (WT or mutant) immunoprecipitated with anti-HA antibodies; blots with anti-Gcn2 and anti-LexA; pellet:input ratios of Gcn2 normalised to LexA-HA-KD in the pellet, three experiments. Particulars: partners not purified.

For assay [2], the target named is T1, HA epitope-tagged LexA fusion to a Gcn2 …. In words: co-IP; [35S]methionine-labelled in vitro translated YKD fragments incubated with 50 µg WCE of gcn2Δ yeast HQY132 expressing LexA-HA-KD(720–999); anti-HA agarose, 4°C 2 h, breaking buffer (50 mM Tris/HCl pH 7.5, 50 mM NaCl, 0.1% Triton, 1 mM DTT); SDS-PAGE and fluorography; pellet:input ratios normalised to WT YKD. Particulars: partners not purified.

Where a chain is given by its changes, count along the chain named. Numbers in names are those of the source.

B1: Gcn2-ΔYKD (enzyme, S. cerevisiae, UniProt P15442 1-1659, looked up)
chain: MSLSHLTLDQYYEIQCNELEAIRSIYMDDFTDLTKRKSSWDKQPQIIFEITLRSVDKEPVESSITLHFAMTPMYPYTAPEIEFKNVQNVMDSQLQMLKSEFKKIHNTSRGQEIIFEITSFTQEKLDEFQNVVNTQSLEDDRLQRIKETKEQLEKEEREKQQETIKKRSDEQRRIDEIVQRELEKRQDDDDDLLFNRTTQLDLQPPSEWVASGEAIVFSKTIKAKLPNNSMFKFKAVVNPKPIKLTSDIFSFSKQFLVKPYIPPESPLADFLMSSEMMENFYYLLSEIELDNSYFNTSNGKKEIANLEKELETVLKAKHDNVNRNLVSESVNSNSLELTPGDTITVRGNGGRTLSQSSIRRRSFNVGSRFSSINPATRSRYASDFEEIAVLGQGAFGQVVKARNALDSRYYAIKKIRHTEEKLSTILSEVMLLASLNHQYVVRYYAAWLEEDSMDENVFESTDEESDLSESSSDFEENDLLDQSSIFKNRTNHDLDNSNWDFISGSGYPDIVFENSSRDDENEDLDHDTSSTSSSESQDDTDKESKSIQNVPRRRNFVKPMTAVKKKSTLFIQMEYCENRTLYDLIHSENLNQQRDEYWRLFRQILEALSYIHSQGIIHRDLKPMNIFIDESRNVKIGDFGLAKNVHRSLDILKLDSQNLPGSSDNLTSAIGTAMYVATEVLDGTGHYNEKIDMYSLGIIFFEMIYPFSTGMERVNILKKLRSVSIEFPPDFDDNKMKVEKKIIRLLIDHDPNKRPGARTLLNSGWLPVKHQDEVIKEALKSLSNPSSPWQQQVRESLFNQSYSLTNDILFDNSVPTSTPFANILRSQMTEEVVKIFRKHGGIENNAPPRIFPKAPIYGTQNVYEVLDKGGTVLQLQYDLTYPMARYLSKNPSLISKQYRMQHVYRPPDHSRSSLEPRKFGEIDFDIISKSSSESGFYDAESLKIIDEILTVFPVFEKTNTFFILNHADILESVFNFTNIDKAQRPLVSRMLSQVGFARSFKEVKNELKAQLNISSTALNDLELFDFRLDFEAAKKRLYKLMIDSPHLKKIEDSLSHISKVLSYLKPLEVARNVVISPLSNYNSAFYKGGIMFHAVYDDGSSRNMIAAGGRYDTLISFFARPSGKKSSNTRKAVGFNLAWETIFGIAQNYFKLASGNRIKKRNRFLKDTAVDWKPSRCDVLISSFSNSLLDTIGVTILNTLWKQNIKADMLRDCSSVDDVVTGAQQDGIDWILLIKQQAYPLTNHKRKYKPLKIKKLSTNVDIDLDLDEFLTLYQQETGNKSLINDSLTLGDKADEFKRWDENSSAGSSQEGDIDDVVAGSTNNQKVIYVPNMATRSKKANKREKWVYEDAARNSSNMILHNLSNAPIITVDALRDETLEIISITSLAQKEEWLRKVFGSGNNSTPRSFATSIYNNLSKEAHKGNRWAILYCHKTGKSSVIDLQR
notes: Gcn2, S. cerevisiae, otherwise full length, lacking the pseudokinase domain (YKD); also called gcn2-Δ324-538; source: yeast gcn2Δ strain HQY132, high-copy plasmid (p630 backbone), in whole cell extract
In the case of B1, the “proportion co-immunoprecipitated relative to WT Gcn2” value in assay [1] was ~0.33 fraction of WT.

B2: Gcn2 YKD fragment (230–604) L527I (domain or fragment, S. cerevisiae, UniProt P15442 230-604, looked up)
chain: MFKFKAVVNPKPIKLTSDIFSFSKQFLVKPYIPPESPLADFLMSSEMMENFYYLLSEIELDNSYFNTSNGKKEIANLEKELETVLKAKHDNVNRLFGYTVERMGRNNATFVWKIRLLTEYCNYYPLGDLIQSVGFVNLATARIWMIRLLEGLEAIHKLGIVHKCINLETVILVKDADFGSTIPKLVHSTYGYTVLNMLSRYPNKNGSSVELSPSTWIAPELLKFNNAKPQRLTDIWQLGVLFIQIISGSDIVMNFETPQEFLDSTSMDETLYDLLSKMLNNDPKKRLGTLELLPMKFIRTNIDSTINRFNLVSESVNSNSLELTPGDTITVRGNGGRTLSQSSIRRRSFNVGSRFSSINPATRSRYASDFEEIAV
modifications: [35S]-methionine-labeled
notes: Gcn2 YKD segment, S. cerevisiae, residues 230-604; also called L527I YKD fragment; source: in vitro translated (TNT T7 Coupled Reticulocyte Lysate System), partially purified by ammonium sulfate precipitation
As for B2, the “level co-immunoprecipitated relative to WT YKD” value in assay [2] was ~4 fold of WT.

B3: Gcn2 YKD fragment (230–604) T518A/L527I (domain or fragment, S. cerevisiae, UniProt P15442 230-604, looked up)
chain: B2 chain with T289A
modifications: [35S]-methionine-labeled
notes: Gcn2 YKD segment, S. cerevisiae, residues 230-604; also called T518A/L527I YKD fragment; source: in vitro translated (TNT T7 Coupled Reticulocyte Lysate System), partially purified by ammonium sulfate precipitation
Consider B3, for which the “level co-immunoprecipitated relative to WT YKD” value in assay [2] is ~4 fold of WT.

B4: Gcn2 YKD fragment (230–604) R528A (domain or fragment, S. cerevisiae, UniProt P15442 230-604, looked up)
chain: B2 chain with I298L, R299A
modifications: [35S]-methionine-labeled
notes: Gcn2 YKD segment, S. cerevisiae, residues 230-604; also called R528A YKD fragment; source: in vitro translated (TNT T7 Coupled Reticulocyte Lysate System), partially purified by ammonium sulfate precipitation
B4: the “level co-immunoprecipitated relative to WT YKD” value in assay [2] was 60 % of WT.
